The target of assay [1] is dog (Canis lupus) PDL1 (dPDL1) expressed on CHO-S cells (CHO-S-dPDL1) (dog (Canis lupus)). The assay can be described thus: flow cytometry on CHO-S-dPDL1 cells; antibody 1 µg/mL. For orientation: In flow cytometry, cells or beads pass a laser one at a time.
The target is the same in assay [2]. The assay can be described thus: flow cytometry on CHO-S-dPDL1 cells; antibody 0.1 µg/mL.

Chain of dog (Canis lupus) PDL1 (dPDL1) expressed on CHO-S cells (CHO-S-dPDL1) (dog (Canis lupus)) (chain, as listed by the source limits assumed, form in doubt): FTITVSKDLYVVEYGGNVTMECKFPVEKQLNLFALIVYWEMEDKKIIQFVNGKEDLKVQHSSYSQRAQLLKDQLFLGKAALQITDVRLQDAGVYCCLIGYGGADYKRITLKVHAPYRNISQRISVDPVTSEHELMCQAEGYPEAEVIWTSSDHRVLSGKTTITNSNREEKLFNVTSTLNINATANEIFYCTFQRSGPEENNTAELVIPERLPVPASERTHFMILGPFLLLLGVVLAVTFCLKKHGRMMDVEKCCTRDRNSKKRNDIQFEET

B1: B20B02-N297A (antibody, human IgG1, V domains shown)
VH: QVQLQQSGGGVVQPGRSLRLSCAASGFTFSTYGMHWVRQAPGKGLEWVAALSFDGGNIYYGDSVKGRFTISRDNSKNTLYLQMNSLRAEDTALYYCAKARLPYSYDAVDYWGQGTLVTVSS
VL: EIVMTQSPATLSVSPGERATLSCRASQSVSSNLAWYQQKPGQAPRLLIYDTSTRAIGIPARFSGSGSGTEFTLTISSLQSEDFAIYYCHQYNFWPPITLGQGTRLEIK
As for B1, the values for the Percentage of Positive Cells (%) in assay [1] and in assay [2] were 70.7% and 53.1%, respectively.

B2: B22E02-N297A (antibody, human IgG1, V domains shown)
VH: QVQLVQSGGGLVQPGRSLRLSCRASGFTFDGYSMNWVRQAPGKGLEWVGFIRSKGYGGTSESAASVKGRFTISRDDSKSIAYLQMNSLKTEDTAVYYCTRTRNWNDEGYFDYWGLGTLVTVSS
VL: DIQMTQSPSSLSASVGDRVTITCQASQDINKYLNWYQQKPGKAPKLLIYDASNSETGVPSRFSGSGSGTDFTFTISSLQPEDISTYYCQQYDILPITFGQGTRLEIK
In the case of B2, the Percentage of Positive Cells (%) in assay [1] was 67.8%; in assay [2], 51%.

B3: B21A06-N297A (antibody, human IgG1, V domains shown)
VH: QVQLQESGGDVVQPGRSLRLSCAASGFTFNNYGMHWVRQAPSKGLEWVAFIWYDGSNKYYGDSVKGRFTISRDNSKNTLYLQMNSLRAEDTALYYCARGDNWNSDAFDIWGPGTMVTVSS
VL: EIVMTQSPLSLPVTLGQPASISCRSSQSLVYTNGNTYLNWFQQRPGQSPRRLIYKVSSRDSGVPDRFSGSGSGTDFTLKISRVAAEDVGLYYCMQGTHWPLTFGGGTKVEIK
Consider B3, for which the Percentage of Positive Cells (%) in assay [1] is 62.5%; in assay [2] it was 50.5%.

(Values after patent US20260193356A1.)
